{"source": "patent US10052364B2", "about": "“Osteocalcin as a treatment for cognitive disorders” (THE TRUSTEES OF COLUMBIA UNIVERSITY IN THE CITY OF NEW YORK, priority 2013, dated 2018)", "key": {"[1]": {"tested_on": "brainstem neurons, neurons of the locus coeruleus, GABAergic interneurons of the hindbrain", "assay": "Electrophysiology, whole cell current clamp recording in brain slices", "assay_type": "cell-based, mouse", "protocol": "Brain slice preparations and electrophysiological recordings were performed according to methods known in the art. Briefly, WT mice were anesthetized with ether and then decapitated. The brains were rapidly removed and immersed in an oxygenated bath solution at […] containing (in mM): sucrose 220, KCl 2.5, CaCl2 1, MgCl2 6, NaH2PO4 1.25, NaHCO3 26, and glucose 10 pH 7.3 with NaOH. Coronal slices (350 μm thick) containing dorsal raphe (DR) were cut on a vibratome and maintained in a holding chamber with artificial cerebrospinal fluid (ACSF) (bubbled with 5% CO2 and 95% O2) containing (in mM): NaCl 124, KCl 3, CaCl2 2, MgCl2 2, NaH2PO4 1.23, NaHCO3 26, glucose 10, pH 7.4 with NaOH, and were transferred to a recording chamber constantly perfused with bath solution (330 C) at 2 ml/min after at least a 1 hr recovery. Whole-cell current clamp was performed to observe action potentials in DR serotoninergic (5-HT) neurons with a Multiclamp 700A amplifier (Axon instrument, CA). Patch pipettes with a tip resistance of 4-6 MS2 were made of borosilicate glass (World Precision Instruments) with a Sutter pipette puller (P-97) and filled with a pipette solution containing (in mM): K-gluconate (or Cs-gluconate) 135, MgCl2 2, HEPES 10, EGTA 1.1, Mg-ATP 2, Na2-phosphocreatine 10, and Na2-GTP 0.3, pH 7.3 with KOH. After a giga-Ohm (GΩ) seal and whole-cell access were achieved, the series resistance (between 20 and 40 MΩ) was partially compensated by the amplifier. […] Electrophysiological data were analyzed with Axograph 4.9 and plotted with Igor Pro software (WaveMetrics, Lake Oswego, Oreg.).\n(§1) To determine if osteocalcin acts directly on neurons to modulate neurotransmitter synthesis, several types of assays were performed. […] Third, to further confirm that osteocalcin signals in neurons of the hindbrain, calcium flux in MPHN treated with undercarboxylated or carboxylated osteocalcin (FIG. 3F) was measured. […]"}, "[2]": {"tested_on": "mouse primary hindbrain neurons (MPHN)", "assay": "Gene expression in cultured mouse primary hindbrain neurons", "assay_type": "cell-based", "conditions": "osteocalcin 3 ng/ml, 2 or 4 hours, WT and Gprc6a-/-", "protocol": "For gene expression studies, RNA was isolated from primary neurons or tissue using TRIZOL® (Invitrogen). cDNA synthesis was performed following a standard protocol from Invitrogen and qPCR analyses were done using specific quantitative PCR primers from SABiosciences (www.sabiosciences.com/RT2PCR.php).\nFor primary culture of hindbrain neurons, E14.5 embryos were obtained from matings of 129-Sv WT mice. Hindbrains were dissected out and collected in ice-cold filter sterilized HBSS buffered with 10 mM HEPES until dissection was complete, at which point they were finely chopped into 2 mm cubes, dissociated by trituration with a fire-polished Pasteur pipette and spun down at 4° C. Cells were then plated onto poly-D-lysine coated coverslips or dishes in Neurobasal medium supplemented with 2% B27, 0.25 mM Glutamax, 0.25 mM L-glutamine, penicillin G (50 U/ml), and streptomycin sulphate ([…]). Cultures were fed every 3-6 days with one half replacement medium without L-glutamine.\nas §1, with “performed. First, brainstem and midbrain explants from WT and Gprc6a^−/− mice were generated.” for “performed.”"}}, "data": [{"molecule": "uncarboxylated osteocalcin: Recombinant osteocalcin bacterially produced, cleaved from the GST subunit; completely undercarboxylated at all three sites (protein, listed as Homo sapiens, uncarboxylated, Recombinant osteocalcin bacterially produced, cleaved from the GST subunit; completely undercarboxylated at all three sites) MRALTLLALLALAALCIAGQAGAKPSGAESSKGAAFVSKQEGSEVVKRPRRYLYQWLGAPVPYPDPLEPRREVCELNPDCDELADHIGFQEAYRRFYGPV", "values": [{"measurement": "action potential frequency of the GABAergic interneurons of the hindbrain", "setting": "[1]", "value": "inhibits"}, {"measurement": "action potential frequency in neurons of the locus coeruleus", "setting": "[1]; whole cell current clamp", "value": "decreases"}, {"measurement": "action potential frequency of brainstem neurons", "setting": "[1]; whole cell current clamp", "value": "activates"}, {"measurement": "GA' expression decrease in primary brainstem neuronal culture", "setting": "[2]", "value": 65, "unit": "%"}, {"measurement": "Tph2 expression in primary brainstem neuronal culture", "setting": "[2]", "value": "increased more than three-fold"}]}]}
